From the nanobody polyreactivity screen of Harvey et al. (2022) come the findings set out here.

A short description of the series: yeast display, Sf9 membrane polyspecificity reagent, FACS + sequencing; frameworks hold sequencing errors. Put shortly: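 Polyreactivity labels are assigned by the sorting gate from which each nanobody was recovered. The gates were low and high (top ~1%), set on anti-HA fluorescence for expression and streptavidin fluorescence for reagent binding. Before sorting, galactose-induced (36–48 hours) yeast display cells were stained for 1 hour at 4 °C with 10% biotinylated, detergent-solubilized Sf9 membrane reagent.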
On to “QVQLVESGGGLVQAGGSLRLSCAASGLIFRSYAMGWYRQAPGKERELVARISIRGGSTYYADSVKGRFTISRDNAKYTVYLQMNSLKPEDTAVYYCGAVGYFGGFRYDYWGQGTQVTVSS”, for which the “polyreactivity (PSR sort gate)” value is “high polyreactivity”.
For “QVQLVESGGGLVQAGGSLRLSCAASGSTFPGNAMGGYRQAPGKERELVAAINWSGDSTYYADSVKGRFTISRDNAKNTVYLQMNSLKPEDTAVYYCAAYGDGYYYWGQGTQVTVSS”, the “polyreactivity (PSR sort gate)” value is recorded as “low polyreactivity”.
On to “QVQLVETGGGLVQAGGSLRLSCAASGSIFGFYAMGWYRQAPGKERELVAAIDSGDSTNYADSVKGRFTISRDNAKNTVYLQMNSLKPEDTAVYYCYAEAWWYFWFDYWGQGTQVTVSS”, for which the “polyreactivity (PSR sort gate)” value was “low polyreactivity”.
“QVQLVESGGGLVKAGGSLRLSCAASGRIFVFNAMGWYRQAPGKERELVAAITSAGSTYYADSVKGRFTISRDNAKNTVYLQMNSLIPEDTAVYYCAAGSRRYRDDYWGQGTQVNVSS”: the “polyreactivity (PSR sort gate)” value is “low polyreactivity”.
The same measure for “QVQLVESGGGLVQAGGSLRLSCAASGSTFDQNAMGWYRPAPGKERELVAAISGSGTRTYYADSVKGLFTISRDNAKKTVYLQMNSLKPEDTAVYYCRTGSGEYDYWGQGTQVTVSS”: “high polyreactivity”.
“QVQLVESGGGLVQAGGSLRLSCAASGITFYRYAMGWYRQAPGTEREVVATITSGGSTYYADSVKGRFTISRDNAKNTVYLQMNSLKPEDTAVYYCAAESVWTWYYTTAGMDYWGQGTQVTVSS”: the “polyreactivity (PSR sort gate)” value is given as “high polyreactivity”.
For the sequence “QVQLVESGGGLVQAGGSLRLSCAASGFTFGYYTMGWYRQAPGKERELVAAISWSGDSTYYADSVKGRFTISRDNAKNNVYLQMNSLKPEDTAVYYCAAAVYGSWPDYDYWGQGTQVTVSS”, the “polyreactivity (PSR sort gate)” value was “low polyreactivity”.
The same measure for “QVQLVESGGGLVQAGGSVRLSCAASGRIFSRKAMRWYIQAPGKERELVAAISRSGTSTYYADSVKGRFTISRDNAKNTVYLQMNSLKPEDNAVYYCAADYPAVISIRRYDYWGQGTQVTVSS”: “low polyreactivity”; for “QVQLVESGGGLVQAGGSLRLSCAASGRIFGYYAMGWSRQAPGKERELVATITFGGGSTYYADSVKGRFTISRDNAKNTVYFQMNSLKPEDTAVYYCAADSGYLGIYGDEYSWGQGTQVTVSS”: “low polyreactivity”; for “QVQLVESGGGLVQAGGSLRLSCAASGLIFRYYAMGWYRQAPGKERELVAAISSSGTRTYYADSVKGRFTISRDNAKNTVYLQMNSLKPEDTSVYYCATENQNPTGGYWGQGTQVTVSS”: “high polyreactivity”.
For the sequence “QVQLVESGGGLVQAGGSLRLSCAASGSIFSYYAMGWSRQEHGKERELVAAITRSGSTNYADSVKGRFTISRDNAKNTVYLQMNSLKPEDTAVYYCARRHYSSRVIYVSSKGGYWGQGTQVTVSS”, the “polyreactivity (PSR sort gate)” value was “high polyreactivity”.
The same measure for “QVQLVESGGGLVQAGGSLRLSCAASGRTFKPYAMGWYRPAPGKDRELVAAISTRGGSTYFADSVKGRFTISRDNAKNTVYLQMNSLKPEDTAVYYCAATQPVRDYDYWGQGTQVTVSS”: “low polyreactivity”; for “QVQLVESGGGLVQAGCSLRLSWAASGRIFRPNSMGWYRQAPGKERELVAAITSNGGRTYYADSVKGRFTISRDNAKNTVYLQMNSLKPEDTAVYYCAKRVWYYSHKYDYWGQGTQVTVSS”: “high polyreactivity”; for “QVQLVESGGGLVQAGGSLRLSCAASGSIFHYYAMGWYRQAPGKERELVAAISWSGGRTNYADSVKGRFTISRDNAKNTVYLQMNSLKPEDTAVYYCAAAERSYSGGGKIGKYYYWGQGTQVTVSS”: “high polyreactivity”.
As for “QVQLVESGGGLVQAGGSLLLSCASSGFIFTKYTMGWYRLAPGKERELVAAITGRGTSTYADSVKGRFSMSRDNAKNTVYLQMNSLIPEDTAVYYCAAVGWFADFLFSDINGYYWGQGTQVTVSA”, the entry is “low polyreactivity”; as for “QVQLVESGGGLVQAGGSLRLSCAASGFTFDENAMGWYRQAPGINYSGASTYYADSVKGRFTISRDNAKNTVYLQMNSLKADDTAVYYCAAEVVAQMNYWGQGTQVTVSS”, “low polyreactivity”.
